Results on 7 molecules are retold here after US20230372419A1, “LIVE BIOTHERAPEUTICS SECRETING SYNTHETIC BACTERIOPHAGES IN THE TREATMENT OF CANCER” (TATUM BIOSCIENCE INC., priority 2020, published 2023).

For assay [1], the target named is T1, mice CTLA-4 recombinant protein (R&D systems) (mice, UniProt P09793 36-161).
T1 construct: Coated on ELISA plates at 10 µg/mL; also called recombinant CTLA-4 protein; CTLA-4 immune checkpoint
The experiment in a line: ELISA on coated mouse CTLA-4, detection with anti-pVIII-HRP.

For assay [2], the target named is T2, CD47 on the surface of A20 mouse lymphoma cells (mouse (A20 mouse lymphoma cells), UniProt Q61735 19-303).
T2 construct: whole, on cells; also called CD47 receptor; CD47 immune checkpoint
T2 sequence (looked up): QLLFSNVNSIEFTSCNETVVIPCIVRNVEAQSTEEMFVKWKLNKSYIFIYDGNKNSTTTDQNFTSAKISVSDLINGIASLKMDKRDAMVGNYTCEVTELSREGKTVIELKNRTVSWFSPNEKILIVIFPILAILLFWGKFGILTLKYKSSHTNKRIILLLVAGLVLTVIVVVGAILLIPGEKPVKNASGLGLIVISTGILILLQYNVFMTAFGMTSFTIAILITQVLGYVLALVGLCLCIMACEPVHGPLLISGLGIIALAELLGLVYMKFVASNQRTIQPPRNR
The assay can be described thus: pull-down assay on A20 cells.

Assay [3] has as its target T3, PD-L1 on the surface of A20 cells (mouse (A20 mouse lymphoma cells), UniProt Q9EP73 19-290).
T3 construct: whole, on cells; also called PD-L1 receptor; CD274
The assay can be described thus: flow cytometry on A20 cells, competition with anti-PD-L1-PE (10F.9G2). In general terms: In flow cytometry, cells or beads pass a laser one at a time.

For the next assay, the target named is T4, PD-L1 on A20 cells (Mus musculus, UniProt Q9EP73).
T4 construct: host or cells: A20 mouse B lymphoma cells (live for flow cytometry, formalin-fixed for ELISA)
T4 sequence (Q9EP73 19-290): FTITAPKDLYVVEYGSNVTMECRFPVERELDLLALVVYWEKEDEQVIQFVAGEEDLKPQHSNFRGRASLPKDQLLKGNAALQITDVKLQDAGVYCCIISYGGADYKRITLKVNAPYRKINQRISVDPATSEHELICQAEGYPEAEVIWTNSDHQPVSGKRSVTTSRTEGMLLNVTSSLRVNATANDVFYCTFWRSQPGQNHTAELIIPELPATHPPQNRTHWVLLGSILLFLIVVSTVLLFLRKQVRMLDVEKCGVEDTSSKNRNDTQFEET
The experiment in a line: Binding to PD-L1 on fixed A20 cells by ELISA. To be noted: nanobody 1 nM to 10 μM, detection anti-HA-HRP. On the procedure: Assessment of anti-PD-L1 displaying bacteriophages binding activity on A20 cells by EUSA. A 96 wells plate was prepared by adding in each well 100 μL of PBS comprising 1×10^5 A20 cells. The plate was then incubated 30 min to allow sedimentation of the cells. The plate was then tilted and the PBS was carefully removed. To fix the cells to the plate, 100 μL of 10% formalin was then added, and the plate was incubated for 10 min. The fixed cells were then washed gently with 100 μL of PBS and then blocked by adding 200 μL of PBS (1% BSA, 3% milk), followed a 30 min incubation periode. The blocking buffer was removed and then 100 μL of bacteriophage PEG preparation was added to the wells. The plate was incubated 1 h and then washed three times with 200 μL of PBS. To detect the bacteriophages, 100 μL of anti-HA-HRP (Cell Signaling) 1/500 diluted in PBS (3% milk, 1% BSA) was added and the plate was incubated for 1 h. […] Then, 100 μL from each well was transferred to a new plate and optical density was measured at 450 nm.
Assessment of anti-PD-L1 nanobody binding activity on A20 cells by EISA. […] Then, 100 μL from each well was transferred to a new plate and optical density was measured at 450 nm. […] Tumor sizes were then monitored twice a week using a precise caliper until tumors exceed 1500 mm^3 or until day 24 after the first injection. […]
A general note: In an ELISA, binding on a coated surface is turned into a signal by an enzyme label.

Assay [4] has as its target T3, PD-L1 on the surface of A20 cells. The assay can be described thus: ELISA on fixed A20 cells, detection with anti-HA-HRP.

T3 sequence (Q9EP73 19-290): as above

B1: synthetic bacteriophage displaying an anti-CTLA-4 anticalin on pIII (MG1655+pTAT004+pTAT030) (other)
chain: QDSTSDLIPAPPLSKVPLQQNFQDNQFHGKWYVVGLAGNRILRDDQHPMNMYATIYELKEDKSYNVTSVISSHKKCEYTIATFVPGSQPGEFTLGNIKSYGDKTSYLVRVVSTDYNQYAMVFFKLAEDNAEFFAITIYGRTKELASELKENFIRFSKSLGLPENHIVFPVPIDQCIDG
notes: Whole phage particle; not shown: HA-6His dual tag linker; C-terminal fragment of coat protein pIII (gpIII-C) of bacteriophage M13
With B1, in assay [1], the binding result is reported as “binds”.

B2: synthetic bacteriophage displaying an anti-CD47 nanobody on pIII (MG1655+pTAT004+pTAT003) (other, not shown: small tags and cut ends; large carriers)
chain: QVQLVESGGGLVEPGGSLRLSCAASGIIFKINDMGWYRQAPGKRREWVAASTGGDEAIYRDSVKDRFTISRDAKNSVFLQMNSLKPEDTAVYYCTAVISTDRDGTEWRRYWGQGTQVTVSSGGLPETGG
notes: also called pTAT003 derived bacteriophages; nbCD47-pIII bacteriophages
On to B2, for which the binding result in assay [2] was “binds”.

B3: synthetic bacteriophage displaying an anti-PD-L1 nanobody on pIII (MG1655+pTAT004+pTAT020) (other)
chain: QVQLVETGGGLVQPGGSLRLSCTASGFTFSMHAMTWYRQAPGKQRELVAVITSHGDRANYTDSVRGRFTISRDNTKNMVYLQMNSLKPEDTAVYYCNVPRYDSWGQGTQVTVSSGGLPETGG
notes: Whole phage particle; also called anti-PD-L1 synthetic bacteriophage; not shown: HA-6His dual tag linker; C-terminal fragment of coat protein pIII (gpIII-C) of bacteriophage M13
Take B3: the binding result in assay [3] is “binds”.

B4: synthetic bacteriophage displaying the anti-PD-L1 nanobody at the N-terminal end of pIII (MG1655+pTAT032) (other)
chain: B3 chain
notes: Single-vector system derived from M13mp18-Kan; also called pTAT32; anti-PD-L1 nanobody on pIII; not shown: C-terminal fragment of coat protein pIII (gpIII-C) of bacteriophage M13
B4: the binding result in assay [3] was “binds”.

B5: purified anti-PD-L1 nanobody: purified anti-PD-L1 nanobody with hexahistidine and HA tags, expressed in BL21 (DE3) (protein)
VHH: B3 chain
modifications: left off: small tags and cut ends
As to B5, in the assay with PD-L1 on A20 cells, the “purified nanobody binding activity on A20 cells (ELISA)” value is on record as “confirmed its binding activity on A20 cells”.

B6: synthetic bacteriophage displaying the anti-PD-L1 nanobody inserted between the binding domain and the bacteriophage anchor domain of pIII (MG1655+pTAT033) (other)
chain: B3 chain
notes: Single-vector system derived from M13mp18-Kan; whole phage particle, remained infectious; also called anti-PD-L1 nanobody inserted in pIII; not shown: N-terminal part of pIII (D1/D2 domains) of bacteriophage M13; C-terminal part of pIII (gpIII-C, transmembrane region / anchor domain) of bacteriophage M13
B6: the binding result in assay [3] is listed as “binds”.

B7: purified anti-PD-L1 nanobody with hexahistidine and HA tags fused in C-terminal (VHH)
VHH: QVQLVETGGGLVQPGGSLRLSCTASGFTFSMHAMTWYRQAPGKQRELVAVITSHGDRANYTDSVRGRFTISRDNTKNMVYLQMNSLKPEDTAVYYCNVPRYDSWGQGTQVTVSS
notes: Expressed from the pTrcHis vector in E. coli BL21 (DE3), purified on Ni-NTA; also called nbPDL1 (pTAT034); not shown: hexahistidine and HA tags fused in C-terminal
As to B7, in assay [4], the binding result is “binds”.
